The values that follow come from article PMC10405735 (Frontiers in Immunology, 2023).

To fix the notation:
B5: murine GPR182 (mGPR182), expressed from mGPR182 T2A GFP in 300.19 pre-B cells (receptor, mouse, UniProt P43142 1-398, looked up)
chain: MSVIPSPRPVSTLEPDNDFRDIHNWTELLHLFNQTFTDCHIEFNENTKHVVLFVFYLAIFVVGLVENVLVICVNCRRSGRVGMLNLYILNMAIADLGIILSLPVWMLEVMLEYTWLWGSFSCRFIHYFYLVNMYSSIFFLTCLSIDRYVTLTNTSPSWQRHQHRIRRAVCAGVWVLSAIIPLPEVVHIQLLDGSEPMCLFLAPFETYSAWALAVALSATILGFLLPFLLIAVFNILTACRLRRQRQTESRRHCLLMWAYIVVFAICWLPYQVTMLLLTLHGTHIFLHCHLVNLLYFFYEIIDCFSMLHCVANPILYNFLSPSFRGRLLSLVVRYLPKEQARAAGGRASSSSSTQHSIIITKEGSLPAAADLHTHPIRNVQASSPPPNTSPTLCNSVAS
notes: GPR182, mouse; Expressed fused via a self-cleaving T2A peptide to GFP (backbone pME-Cas9-T2A-GFP, Addgene 63155); receptor and GFP are split post-translationally; also called ACKR5 (proposed); source: 300.19 mouse pre-B cells, stably transfected, on cells

Common to all, as to conditions: one partner purified
Experiment [1] has as its target T1, human GPR182 (hGPR182), expressed from hGPR182 T2A GFP in 300.19 pre-B cells (human, UniProt O15218 1-404).
T1 construct: GPR182, human; Expressed fused via a self-cleaving T2A peptide to GFP (backbone pME-Cas9-T2A-GFP, Addgene 63155); split post-translationally; also called ACKR5 (proposed); source: 300.19 mouse pre-B cells, stably transfected, on cells
Briefly: flow cytometry on cells; competition binding at 4°C: 300.19 cells expressing mGPR182 or hGPR182 with 3 nM fluorescent chemokine and increasing concentrations of its unlabeled counterpart, 45 min. Background: Flow cytometry measures light scatter and fluorescence of single cells or particles in a stream.

Experiment [2] deals with T1, human GPR182 (hGPR182), expressed from …. Description: flow cytometry on cells; competition scavenging at 37°C: 300.19 cells expressing mGPR182 or hGPR182 with 3 nM fluorescent chemokine and increasing concentrations of its unlabeled counterpart, 45 min.
For experiment [3], the target named is B5. Description: flow cytometry on cells; competition binding at 4°C: 300.19 cells expressing mGPR182 or hGPR182 with 3 nM fluorescent chemokine and increasing concentrations of its unlabeled counterpart, 45 min.
Experiment [4] concerns the target B5. Description: flow cytometry on cells; competition scavenging at 37°C: 300.19 cells expressing mGPR182 or hGPR182 with 3 nM fluorescent chemokine and increasing concentrations of its unlabeled counterpart, 45 min.
In a further experiment the target is T2, hCXCL12, unlabeled (human, UniProt P48061 22-93).
T2 construct: CXCL12, human; also called X12
Description: flow cytometry on cells; competition binding at 4°C: 300.19 cells expressing mGPR182 or hGPR182 with 3 nM fluorescent chemokine and increasing concentrations of its unlabeled counterpart, 45 min.

Experiment [5] addresses B5. Description: flow cytometry on cells; direct binding: 300.19 cells expressing GPR182 T2A GFP with increasing concentrations of fluorescently labelled chemokine, 45 min; temperature not stated for this experiment.

One may read the Kd as the free concentration of one partner at which half of the binding sites on the other are occupied at equilibrium, for simple one-to-one binding. Higher therefore signals lower affinity.

B1: hCCL19, unlabeled (ligand, human, UniProt Q99731 22-98, looked up)
chain: GTNDAEDCCLSVTQKPIPGYIVRNFHYLLIKDGCRVPAVVFTTLRGRQLCAPPDQPWVERIIQRLQRTSAKMKRRSS
notes: CCL19, human
The molecule B1 showed a Kd in experiment [1] of 55 nM. Also, in experiment [2], the “Kd (competition scavenging)” value amounted to 75 nM.

B2: mCCL19, unlabeled (ligand, mouse, UniProt O70460 26-108, looked up)
chain: GANDAEDCCLSVTQRPIPGNIVKAFRYLLNEDGCRVPAVVFTTLRGYQLCAPPDQPWVDRIIRRLKKSSAKNKGNSTRRSPVS
notes: CCL19, mouse
Turning to B2, in experiment [3], the Kd was 180 nM. Besides, the “Kd (competition scavenging)” value in experiment [4] is 250 nM.

B3: hCXCL13, unlabeled (ligand, human, UniProt O43927 23-109, looked up)
chain: VLEVYYTSLRCRCVQESSVFIPRRFIDRIQILPRGNGCPRKEIIVWKKNKSIVCVDPQAEWIQRMMEVLRKRSSSTLPVPVFKRKIP
notes: CXCL13, human
As to B3, the Kd in experiment [3] and in experiment [1] was 20 nM in each case. For the same molecule, the “Kd (competition scavenging)” value in experiment [4] stood at 13 nM; in experiment [2], 9 nM.

B4: mCCL20, unlabeled (ligand, mouse, UniProt O89093 28-97, looked up)
chain: ASNYDCCLSYIQTPLPSRAIVGFTRQMADEACDINAIIFHTKKRKSVCADPKQNWVKRAVNLLSLRVKKM
notes: CCL20, mouse
Molecule B4 showed a Kd in experiment [3] of 120 nM.

B5 yielded a Kd with hCXCL12, unlabeled of 120 nM.

B6: mCCL28, fluorescently labelled (ligand, mouse, UniProt Q9JIL2 17-130, looked up)
chain: FQTSEAILPMASSCCTEVSHHVSGRLLERVSSCSIQRADGDCDLAAVILHVKRRRICISPHNRTLKQWMRASEVKKNGRENVCSGKKQPSRKDRKGHTTRKHRTRGTHRHEASR
modifications: fluorescent label (AF647 or Dy649), site not stated
notes: CCL28, mouse; also called CCL28-AF647; mCCL28-AF647
In experiment [5], B6 yielded a Kd of approximately 8.5 nM.

B7: mCCL28, unlabeled (ligand, mouse, UniProt Q9JIL2 17-130, looked up)
chain: FQTSEAILPMASSCCTEVSHHVSGRLLERVSSCSIQRADGDCDLAAVILHVKRRRICISPHNRTLKQWMRASEVKKNGRENVCSGKKQPSRKDRKGHTTRKHRTRGTHRHEASR
notes: CCL28, mouse
With B7, the Kd came to 10 nM in experiment [3] and 28 nM in experiment [1]. Also, the “Kd (competition scavenging)” value was 14 nM in experiment [4] and 52 nM in experiment [2].
